Assay [1] has as its target RSV A + RSV B bivalent composition (RSV subtype A; RSV subtype B). Kind of assay: AM14 Fab titration by SEC; Target cycle; 8 M 25°C. On the technique in general: SEC sorts molecules by how far they enter the pores of the column.
Assay [2] has the same target. Kind of assay: AM14 Fab titration by SEC; High-Slow 2 cycle; 1 M 40°C.
For assay [3] the target is unchanged. Briefly: AM14 Fab titration by SEC; High-Slow 1 cycle; 3 M 25°C.
The target is the same in assay [4]. Kind of assay: AM14 Fab titration by SEC; High-Slow 1 cycle; 3 M 2-8°C.
Assay [5] shares this target. Briefly: AM14 Fab titration by SEC; composition of Table 17; Pre-lyo Prep 2, T0.
Assay [6] has as its target T1, RSV F protein of subtype A comprising a polypeptide of SEQ ID NO: 1 and a polypeptide of SEQ ID NO: 2 (RSV subtype A, UniProt P11209 137-513; P03420 26-109).
T1 construct: Stabilized prefusion F trimer made of three F2-F1 heterodimers; Produced recombinantly in CHO cells; also called RSV A; RSVA
T1 chain 1: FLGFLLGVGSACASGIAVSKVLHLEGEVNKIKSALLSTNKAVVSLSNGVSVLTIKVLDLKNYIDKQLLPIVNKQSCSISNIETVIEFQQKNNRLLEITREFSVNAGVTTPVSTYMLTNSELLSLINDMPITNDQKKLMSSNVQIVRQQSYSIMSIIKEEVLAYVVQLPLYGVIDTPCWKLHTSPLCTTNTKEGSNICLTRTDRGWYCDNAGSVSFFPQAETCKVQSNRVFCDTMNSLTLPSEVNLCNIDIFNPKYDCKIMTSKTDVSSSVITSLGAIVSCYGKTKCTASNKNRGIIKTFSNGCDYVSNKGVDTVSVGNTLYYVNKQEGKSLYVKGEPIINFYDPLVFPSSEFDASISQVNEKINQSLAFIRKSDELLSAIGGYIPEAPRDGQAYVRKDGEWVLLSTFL
T1 chain 2: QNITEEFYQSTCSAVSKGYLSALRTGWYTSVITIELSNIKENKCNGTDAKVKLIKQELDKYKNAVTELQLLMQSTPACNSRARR
Kind of assay: AM14 ELISA; F5 (pH 6, 100 mM NaCl, 9.0% sucrose); T0.

Assay [7] concerns the target T1, RSV F protein of subtype A comprising a …. Kind of assay: AM14 ELISA; F9 (pH 8, 50 mM NaCl, 4.5% sucrose); 2 wk 25°C. (In general: In an ELISA, binding on a coated surface is turned into a signal by an enzyme label.)
Assay [8] shares this target. Kind of assay: AM14 ELISA; F1 (pH 8, 100 mM NaCl, 0% sucrose); 2 wk 25°C.
The target is the same in assay [9]. Briefly: AM14 ELISA; F8 (pH 7, 50 mM NaCl, 0% sucrose); 2 wk 5°C.
Assay [10] shares this target. Kind of assay: AM14 ELISA; F8 (pH 7, 50 mM NaCl, 0% sucrose); 1 wk 25°C.
The target is the same in assay [11]. Kind of assay: AM14 ELISA; F4 (pH 6, 50 mM NaCl, 4.5% sucrose); 2 wk 25°C.
The target is the same in assay [12]. Briefly: AM14 ELISA; F17 (pH 7, 50 mM NaCl, 4.5% trehalose); 2 wk 25°C.
Assay [13] shares this target. Kind of assay: AM14 ELISA; F4 (pH 6, 50 mM NaCl, 4.5% sucrose); 1 wk 5°C.
Assay [14] shares this target. Briefly: AM14 ELISA; F9 (pH 8, 50 mM NaCl, 4.5% sucrose); 1 wk 5°C.
The target is the same in assay [15]. Briefly: AM14 ELISA; F14 (pH 7, 50 mM NaCl, 4.5% sucrose); 2 wk 25°C.
Assay [16] has the same target. Kind of assay: AM14 ELISA; F11 (pH 7, 50 mM NaCl, 9.0% sucrose); 2 wk 5°C.

As to AM14 Fab, the Prefusion Content (%) in [1] came to 75%; in [2], 52%; in [3], 53%; in assay [4], 49%; in assay [5], 81%.

B1: AM14 (trimeric prefusion specific antibody of the AM14 ELISA) (antibody, V domains shown)
VH: EVQLVESGGGVVQPGRSLRLSCAASGFSFSHYAMHWVRQAPGKGLEWVAVISYDGENTYYADSVKGRFSISRDNSKNTVSLQMNSLRPEDTALYYCARDRIVDDYYYYGMDVWGQGATVTVSS
VL: DIQMTQSPSSLSASVGDRVTITCQASQDIKKYLNWYHQKPGKVPELLMHDASNLETGVPSRFSGRGSGTDFTLTISSLQPEDIGTYYCQQYDNLPPLTFGGGTKVEIKR
notes: Antibody as used in the AM14 ELISA, detected with an HRP-labeled secondary antibody
B1: the “AM14 prefusion content (%), relative to standard” value in assay [6] amounted to 91%; in assay [7] it was 60%; in assay [8], 93%; in [9] it was 101%; in assay [10], 86%; in assay [11], 86%. The “AM14 prefusion content (%), relative to standard” value was found to be 64% in [12]; 76% in assay [13]; 94% in assay [14]; 78% in assay [15]; 90% in assay [16].
